± gives the standard deviation.

The text below walks through data of the supplement of paper PMC10598134.

This data set in a line: collision cross section of modified peptide (TIMS, N2, iRT-aligned); higher = larger / more extended gas-phase ion. In a few lines:
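Collision cross section values rest on the Mason-Schamp equation applied to calibrated, run-aligned mobility data from synthetic peptides. Mobility (1/K0) was calibrated with three reference ions and aligned per run to the median iRT peptide deviation, and 1–3 technical replicates of the most abundant feature per charge state were averaged. Data came from a timsTOF Pro/HT in dda-PASEF mode (nitrogen, ~2.4 mbar) after a 120-min nanoflow C18 gradient at 60 °C.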

The mark [1] stands for this setting: charge state: 2, modification: Methyl (R).
Setting [2] is: charge state: 3, modification: Methyl (R).
The mark [3] stands for this setting: charge state: 2, modification: Formyl.
[4] abbreviates: charge state: 2, modification: Crotonyl.
Setting [5] is: charge state: 2, modification: Butyryl.
Where [6] appears, read: charge state: 3, modification: Formyl.
Setting [7] is: charge state: 2, modification: GlyGly (K).
[8] abbreviates: charge state: 3, modification: GlyGly (K).
Setting [9] is: charge state: 2, modification: Phospho (Y).
Where [10] appears, read: charge state: 2, modification: Nitro (Y).
[11] abbreviates: charge state: 2, modification: hydroxyisobutyryl.
Where [12] appears, read: charge state: 2, modification: Glutarylation.
[13] abbreviates: charge state: 2, modification: Propionyl.
[14] abbreviates: charge state: 2, modification: Methyl (K).
[15] abbreviates: charge state: 3, modification: Butyryl.
Setting [16] is: charge state: 2, modification: Citrullination (R).
Setting [17] is: charge state: 3, modification: Citrullination (R).
The mark [18] stands for this setting: charge state: 3, modification: hydroxyisobutyryl.
The mark [19] stands for this setting: charge state: 2, modification: Trimethyl (K).
[20] abbreviates: charge state: 3, modification: Trimethyl (K).
Setting [21] is: charge state: 2, modification: Succinyl.
Where [22] appears, read: charge state: 2, modification: Malonyl.
Setting [23] is: charge state: 2, modification: Biotin.

Turning to RLPTTGYLVYR [_R(Methyl (R))LPTTGYLVYR_], the collision cross section by setting is: under setting [1], 391.98 Å²; under setting [2], 476.6 ± 3.2 Å².

Under setting [3], “IVSGKDYNVTANSK [_IVSGK(Formyl)DYNVTANSK_]” had a collision cross section of 405.86 ± 0.56 Å².

Turning to FDDTNPEKEEAK [_FDDTNPEK(Crotonyl)EEAK_], the collision cross section reads like this: under setting [4], 399.58 ± 0.79 Å²; (charge state: 3, modification: Crotonyl) 439.29 Å².

For “VDVEVPDVSLEGPEGKLK [_VDVEVPDVSLEGPEGK(Butyryl)LK_]”, the collision cross section under setting [5] is on record as 469.33 ± 0.49 Å².

In the case of SITHSTVGSKGEK [_SITHSTVGSK(Formyl)GEK_], the collision cross section is, setting by setting: under setting [3], 387.87 ± 1.4 Å²; under setting [6], 435.39 ± 3 Å².

For “ANLEKAQAELVGTADEATR [_ANLEK(GlyGly (K))AQAELVGTADEATR_]”, the collision cross section reads like this: under setting [7], 487.2 ± 1.5 Å²; under setting [8], 513.9 ± 1.3 Å².

Take “GGGGGGGGGAPRGR [_GGGGGGGGGAPR(Methyl (R))GR_]”: the collision cross section runs as follows: under setting [1], 346.08 ± 2.1 Å²; under setting [2], 427.42 ± 3.8 Å².

Take “IVSGKDYNVTANSK [_IVSGK(GlyGly (K))DYNVTANSK_]”: the collision cross section by setting is: under setting [7], 423.62 ± 2 Å²; under setting [8], 476.53 ± 2.2 Å².

As for “PSVGSQSNQAGQGKR [_PSVGSQSNQAGQGK(GlyGly (K))R_]”, the collision cross section by setting is: under setting [7], 441.17 ± 1.6 Å²; under setting [8], 461.66 ± 1.1 Å².

In turn, DLEEAEEYK [_DLEEAEEY(Phospho (Y))K_] had a collision cross section under setting [9] of 369.49 ± 0.064 Å².

LEKTIDDLEEK [_LEK(Crotonyl)TIDDLEEK_] displayed a collision cross section under setting [4] of 409.2 ± 1.1 Å².

In turn, LNAIYQNNLTK [_LNAIY(Nitro (Y))QNNLTK_] had a collision cross section under setting [10] of 384.56 ± 0.55 Å².

Under setting [4], “VDVEVPDVSLEGPEGKLK [_VDVEVPDVSLEGPEGK(Crotonyl)LK_]” came in with a collision cross section of 469.01 ± 1.1 Å².

Under setting [11], “VDIDVPDVNIEGPDAKLK [_VDIDVPDVNIEGPDAK(hydroxyisobutyryl)LK_]” returned a collision cross section of 489.94 Å².

Under setting [10], PDTQYTGR [_PDTQY(Nitro (Y))TGR_] displayed a collision cross section of 325.57 ± 0.55 Å².

On to “GFALVGVGSEASSKK [_GFALVGVGSEASSK(Gluratylation)K_]”, for which the collision cross section by setting is: under setting [12], 416.74 ± 0.49 Å²; (charge state: 3, modification: Glutarylation) 499.26 ± 3.6 Å².

Consider “TQAYQDQKPGTSGLR [_TQAYQDQK(Propionyl)PGTSGLR_]”, for which the collision cross section under setting [13] is reported as 428.95 ± 1.4 Å².

Regarding “ITLSKHQNVQLPR [_ITLSK(Methyl (K))HQNVQLPR_]”, the collision cross section stood at 432.38 Å² under setting [14] and 510.25 ± 21 Å² (charge state: 3, modification: Methyl (K)).

For “ANEKTESSSAQQVAVSR [_ANEK(Acetyl (K))TESSSAQQVAVSR_]”, the collision cross section is 433.42 ± 1.8 Å² (charge state: 2, modification: Acetyl (K)) and 527.9 ± 0.37 Å² (charge state: 3, modification: Acetyl (K)).

With “GEVGAGAGPGAQAGPSAKR [_GEVGAGAGPGAQAGPSAK(Butyryl)R_]”, the collision cross section came to 426.32 ± 1.1 Å² under setting [5] and 483.04 ± 4.4 Å² under setting [15].

As for “GPPRGGPGGELPR [_GPPR(Citrullination (R))GGPGGELPR_]”, the collision cross section reads like this: under setting [16], 368.26 ± 0.27 Å²; under setting [17], 454.52 ± 3.7 Å².

In the case of “DYSAPVNFISAGLKK [_DYSAPVNFISAGLK(hydroxyisobutyryl)K_]”, the collision cross section was 443.11 ± 0.56 Å² under setting [11] and 536.52 ± 2.1 Å² under setting [18].

SEASSEFAKK [_SEASSEFAK(Propionyl)K_]: the collision cross section under setting [13] is listed as 351.7 ± 3.7 Å².

Turning to “SLGEPAAGEGSAKR [_SLGEPAAGEGSAK(Propionyl)R_]”, the collision cross section reads like this: under setting [13], 383.35 ± 1.5 Å²; (charge state: 3, modification: Propionyl) 488 ± 0.51 Å².

In the case of “PGGEGPQCEKTTDVK [_PGGEGPQCEK(Butyryl)TTDVK_]”, under setting [5], the collision cross section amounted to 421.37 ± 0.77 Å².

For RLPNVHGR [_R(Methyl (R))LPNVHGR_], the collision cross section was found to be 332.28 ± 1.8 Å² under setting [1] and 421.48 ± 3.9 Å² under setting [2].

As for “IQQELQTAKK [_IQQELQTAK(Trimethyl (K))K_]”, the collision cross section runs as follows: under setting [19], 374.97 ± 0.61 Å²; under setting [20], 436.54 ± 2.4 Å².

As for “DASTLQSQKAEGTGDAK [_DASTLQSQK(Trimethyl (K))AEGTGDAK_]”, the collision cross section came to 445.31 ± 1 Å² under setting [19] and 482.47 ± 1.6 Å² under setting [20].

With “GFLQPPPLRQPR [_GFLQPPPLR(Citrullination (R))QPR_]”, the collision cross section under setting [16] is 391.62 ± 0.23 Å² and the collision cross section under setting [17] is recorded as 460.68 Å².

On to “HELQANCYEEVKDR [_HELQANCYEEVK(Butyryl)DR_]”, for which the collision cross section under setting [5] is on record as 452.47 ± 0.51 Å² and the collision cross section under setting [15] came out at 502.99 ± 3.8 Å².

Turning to LTSLNVKYNNDK [_LTSLNVK(Succinyl)YNNDK_], under setting [21], the collision cross section is 411.65 ± 1.1 Å².

Regarding “VNALKNLQVK [_VNALK(Trimethyl (K))NLQVK_]”, the collision cross section reads like this: under setting [19], 379.91 ± 0.019 Å²; under setting [20], 418.46 ± 2.4 Å².

Consider VVDLLAPYAK [_VVDLLAPY(Nitro (Y))AK_], for which the collision cross section under setting [10] came to 371.07 ± 0.55 Å².

For IQTKAGEATVK [_IQTK(Methyl (K))AGEATVK_], the collision cross section under setting [14] is recorded as 367.02 ± 0.38 Å².

For “GERGPPGPPGK [_GERGPPGPP(Hydroxyproline)GK_]”, the collision cross section is, setting by setting: (charge state: 2, modification: Hydroxyproline) 326.03 ± 0.88 Å²; (charge state: 3, modification: Hydroxyproline) 407.49 ± 18 Å².

Under setting [22], GAEKTEVAEPR [_GAEK(Malonyl)TEVAEPR_] had a collision cross section of 372.62 ± 0.63 Å².

Regarding SGFGKFER [_SGFGK(Propionyl)FER_], the collision cross section under setting [13] is reported as 336.62 ± 0.34 Å².

With “VYIASSSGSTAIKK [_VYIASSSGSTAIK(hydroxyisobutyryl)K_]”, the collision cross section under setting [11] is listed as 417.04 ± 1.1 Å² and the collision cross section under setting [18] came out at 511.39 ± 2 Å².

On to KFGVLSDNFK [_K(Succinyl)FGVLSDNFK_], for which the collision cross section under setting [21] is listed as 376.58 ± 0.24 Å².

Under setting [22], “PGGEGPQCEKTTDVK [_PGGEGPQCEK(Malonyl)TTDVK_]” showed a collision cross section of 427.2 Å².

“AGPNASIISLKSDK [_AGPNASIISLK(Succinyl)SDK_]” had a collision cross section under setting [21] of 414.91 ± 0.86 Å².

Turning to “VLDSGAPIKIPVGPETLGR [_VLDSGAPIK(hydroxyisobutyryl)IPVGPETLGR_]”, the collision cross section was 472.45 ± 0.87 Å² under setting [11] and 522.22 ± 1.2 Å² under setting [18].

Take “PSVSTKLISK [_PSVSTK(Gluratylation)LISK_]”: under setting [12], the collision cross section is given as 361.01 ± 0.71 Å².

As for SYHLQIVTK [_SY(Phospho (Y))HLQIVTK_], the collision cross section turned out to be 357.29 ± 0.065 Å² under setting [9] and 461.35 ± 0.12 Å² (charge state: 3, modification: Phospho (Y)).

For the sequence IISSIEQKEENK [_IISSIEQK(Biotin)EENK_], the collision cross section reads like this: under setting [23], 422.44 ± 3 Å²; (charge state: 3, modification: Biotin) 481.73 ± 1.6 Å².

Turning to ASDTSSETVFGKR [_ASDTSSETVFGK(Biotin)R_], under setting [23], the collision cross section was 406.15 Å².

In turn, “DNNNSNNRGSYNR [_DNNNSNNR(Methyl (R))GSYNR_]” came in with a collision cross section under setting [2] of 460.8 ± 2.4 Å².

In turn, “VFIGNLNTLVVKKK [_VFIGNLNTLVVK(Formyl)KK_]” gave a collision cross section under setting [6] of 499.94 Å².

Turning to “PGGLGSSSLYGLGASRPR [_PGGLGSSSLYGLGASR(Citrullination (R))PR_]”, the collision cross section is 438.36 ± 0.2 Å² under setting [16] and 521.04 ± 1.9 Å² under setting [17].

As for “DSRGGGGNFGPGPGSNFR [_DSR(Methyl (R))GGGGNFGPGPGSNFR_]”, the collision cross section under setting [2] was 480.39 ± 3.1 Å².

“HFGPVPPSQGRGR [_HFGPVPPSQGR(Citrullination (R))GR_]” came in with a collision cross section under setting [17] of 445.8 Å².

Regarding “IVFSGNLFQHQEDSKK [_IVFSGNLFQHQEDSK(Formyl)K_]”, the collision cross section is 496.72 ± 1.3 Å² under setting [3] and 530.13 ± 1.3 Å² under setting [6].

For the sequence “PASGAGAGAGAGKR [_PASGAGAGAGAGK(Dimethyl (K))R_]”, the collision cross section reads like this: (charge state: 2, modification: Dimethyl (K)) 385.92 ± 1.6 Å²; (charge state: 3, modification: Dimethyl (K)) 457.59 ± 1.6 Å².

Turning to GLATFPSRGAK [_GLATFPSR(Methyl (R))GAK_], the collision cross section is, setting by setting: under setting [1], 371.86 ± 0.78 Å²; under setting [2], 447 ± 3.2 Å².

As for “TQAEGQGQGRGLGLVSAVR [_TQAEGQGQGR(Citrullination (R))GLGLVSAVR_]”, the collision cross section under setting [17] worked out at 549.33 ± 0.79 Å².

For the sequence “DESFLGKLGGTLAR [_DESFLGK(Butyryl)LGGTLAR_]”, the collision cross section under setting [5] is 417.73 ± 0.53 Å² and the collision cross section under setting [15] is 494.35 ± 3.3 Å².

As to GVQYLNEIK [_GVQY(Nitro (Y))LNEIK_], the collision cross section under setting [10] amounted to 353.34 ± 0.19 Å².

Consider LYDIDVAK [_LY(Nitro (Y))DIDVAK_], for which, under setting [10], the collision cross section came out at 344.32 ± 0.56 Å².
